Measured values reported in article PMC9261936 (Biochemistry, 2022).
Primed or numbered codes have the meaning given here. *: point of attachment. FITC = O=C1OC2(c3ccc(O)cc3Oc3cc(O)ccc32)c2ccc(NC(=S)*)cc21; Dnp′ = not defined here; CH2Cl = ClC*

What was measured:
SaPrp [1] = molecular target: T1, SaPrp (Staphylococcus aureus, UniProt Q2FXS9, N63Q); format: biochemical; settings: compound at 100 μM, FITC-conjugated peptide
T1 sequence (Q2FXS9 1-106 N63Q): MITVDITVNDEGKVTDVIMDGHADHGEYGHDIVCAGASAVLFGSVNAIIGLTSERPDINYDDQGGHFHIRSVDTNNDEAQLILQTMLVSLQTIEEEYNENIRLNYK

SaPrp [2] = molecular target: T1, SaPrp; experiment: Michaelis–Menten steady-state kinetics, cleavage of FITC-[…]-Dnp; format: biochemical
SaPrp [3] = experiment: Covalent complex formation with SaPrp, mass spectrometry; format: biochemical, Staphylococcus aureus; settings: 2.6-fold molar excess over SaPrp, 1 h, room temperature
[4] = other cysteine proteases, means and standard deviations; cited from earlier work

COC([CH2][Hg+])CNC(=O)c1ccccc1OCC(=O)O.[OH-] (stereo not drawn) [Compound 4, Mersalyl Acid]
Inhibition of Prp at 100 μM (SaPrp [1]): Prp could not cleave the peptide

FITC-KLNLQFFASKK-Dnp ({FITC}-KLNLQFFASKK-{Dnp′}) [Compound 1]
Vmax (SaPrp [2]; FITC-KLNLQFFASKK-Dnp substrate 0.2–20 μM, 48.2 nM SaPrp (monomer)): 11 ± 4.0 nM/s
kcat (SaPrp [2]; FITC-KLNLQFFASKK-Dnp substrate, ET constrained to 42.8 nM active sites): 0.26 ± 0.05 s^–1

acetyl-KLNLQFF-chloromethylketone (Ac-KLNLQFF-CH2Cl; SMILES CC(=O)N[C@@H](CCCCN)C(=O)N[C@@H](CC(C)C)C(=O)N[C@@H](CC(N)=O)C(=O)N[C@@H](CC(C)C)C(=O)N[C@@H](CCC(N)=O)C(=O)N[C@@H](Cc1ccccc1)C(=O)N[C@@H](Cc1ccccc1)C(=O)CCl) [Ac-KLNLQFF-CMK]
Formation of the covalent complex with SaPrp (SaPrp [3]): > 95%

B1: μ-calpain: literature comparator cysteine protease (protein, UniProt P07384 2-714; P04632 1-268, looked up)
Calpain-1 catalytic subunit: SEEIITPVYCTGVSAQVQKQRARELGLGRHENAIKYLGQDYEQLRVRCLQSGTLFRDEAFPPVPQSLGYKDLGPNSSKTYGIKWKRPTELLSNPQFIVDGATRTDICQGALGDCWLLAAIASLTLNDTLLHRVVPHGQSFQNGYAGIFHFQLWQFGEWVDVVVDDLLPIKDGKLVFVHSAEGNEFWSALLEKAYAKVNGSYEALSGGSTSEGFEDFTGGVTEWYELRKAPSDLYQIILKALERGSLLGCSIDISSVLDMEAITFKKLVKGHAYSVTGAKQVNYRGQVVSLIRMRNPWGEVEWTGAWSDSSSEWNNVDPYERDQLRVKMEDGEFWMSFRDFMREFTRLEICNLTPDALKSRTIRKWNTTLYEGTWRRGSTAGGCRNYPATFWVNPQFKIRLDETDDPDDYGDRESGCSFVLALMQKHRRRERRFGRDMETIGFAVYEVPPELVGQPAVHLKRDFFLANASRARSEQFINLREVSTRFRLPPGEYVVVPSTFEPNKEGDFVLRFFSEKSAGTVELDDQIQANLPDEQVLSEEEIDENFKALFRQLAGEDMEISVKELRTILNRIISKHKDLRTKGFSLESCRSMVNLMDRDGNGKLGLVEFNILWNRIRNYLSIFRKFDLDKSGSMSAYEMRMAIESAGFKLNKKLYELIITRYSEPDLAVDFDNFVCCLVRLETMFRFFKTLDTDLDGVVTFDLFKWLQLTMFA
Calpain small subunit 1: MFLVNSFLKGGGGGGGGGGGLGGGLGNVLGGLISGAGGGGGGGGGGGGGGGGGGGGTAMRILGGVISAISEAAAQYNPEPPPPRTHYSNIEANESEEVRQFRRLFAQLAGDDMEVSATELMNILNKVVTRHPDLKTDGFGIDTCRSMVAVMDSDTTGKLGFEEFKYLWNNIKRWQAIYKQFDTDRSGTICSSELPGAFEAAGFHLNEHLYNMIIRRYSDESGNMDFDNFISCLVRLDAMFRAFKSLDKDGTGQIQVNIQEWLQLTMYS
kcat [4]: 0.015 ± 0.002 s^–1

B2: papain: literature comparator cysteine protease (protein, UniProt P00784 134-345, looked up)
Papain: IPEYVDWRQKGAVTPVKNQGSCGSCWAFSAVVTIEGIIKIRTGNLNEYSEQELLDCDRRSYGCNGGYPWSALQLVAQYGIHYRNTYPYEGVQRYCRSREKGPYAAKTDGVRQVQPYNEGALLYSIANQPVSVVLEAAGKDFQLYRGGIFVGPCGNKVDHAVAAVGYGPNYILIKNSWGTGWGENGYIRIKRGTGNSYGVCGLYTSSFYPVKN
kcat [4]: 0.0162 ± 0.000135 s^–1
